These results are taken from paper PMC7294595.

The target in this assay is flu-pTyr (gp130-derived phosphopeptide) (Homo sapiens).

B1: STAT3 127-711, P40763 (protein)
chain: GQANHPTAAVVTEKQQMLEQHLQDVRKRVQDLEQKMKVVENLQDDFDFNYKTLKSQGDMQDLNGNNQSVTRQKMQQLEQMLTALDQMRRSIVSELAGLLSAMEYVQKTLTDEELADWKRRQQIACIGGPPNICLDRLENWITSLAESQLQTRQQIKKLEELQQKVSYKGDPIVQHRPMLEERIVELFRNLMKSAFVVERQPCMPMHPDRPLVIKTGVQFTTKVRLLVKFPELNYQLKIKVCIDKDSGDVAALRGSRKFNILGTNTKVMNMEESNNGSLSAEFKHLTLREQRCGNGGRANCDASLIVTEELHLITFETEVYHQGLKIDLETHSLPVVVISNICQMPNAWASILWYNMLTNNPKNVNFFTKPPIGTWDQVAEVLSWQFSSTTKRGLSIEQLTTLAEKLLGPGVNYSGCQITWAKFCKENMAGKGFSFWVWLDNIIDLVKKYILALWNEGYIMGFISKERERAILSTKPPGTFLLRFSESSKEGGVTFTWVEKDISGKTQIQSVEPYTKQQLNNMSFAEIIMGYKIMDATNILVSPLVYLYPDIPKEEAFGKYCRPESQEHPEADPGSAAPYLKTKFI
In turn, B1 gave a Kd of 60 nM.
